Assays:
[1] = system: endogenous PAR1 and PAR2 in A431 cells; assay: Fluo-3 Ca2+ mobilization (Ca2+ flux) assay in quiescent A431 cells; format: cell-based, human
Method: (§1) Human epidermoid carcinoma A431 cells ([…]) were grown in Dulbecco's modified Eagle's medium (DMEM) supplemented with 10% fetal bovine serum (FBS), 4.5 g/liter glucose, 2 mM glutamine, and antibiotics. ~5 × 10^4 cells at passage 3 to 8 suspended in 200 μl the DMEM medium containing 10% FBS were placed in each well of a 96well microplate, and were cultured at 37°C under air/5% CO2 for ~2 days, followed by ~20 hr starvation through continuously culturing in the serum-free DMEM.
Cells were grown in Costar™ 96well clear cell culture microplates. After starvation, the cells were washed with 1× HBSS (1× regular Hank's balanced salt solution, 20 mM HEPES buffer, pH 7.0) in the presence of 2.5 mM probenicid, and labeled in the same buffer containing 4 μM Fluo-3 for 1 hour at room temperature. The cells were then washed twice with buffer, maintained with 100 μl 1× HBSS containing 2.5 mM probenicid. The assay was initiated by transferring 50 μl PAR agonist solution to the cell plate, and calcium signal was recorded over 6 minutes with a 6 sec interval using HTS7000 BioAssay Reader (PerkinElmer Life Science, Boston, MA). The fluorescent intensity before stimulation was recorded and used as a baseline. The percentage increase in fluorescence intensity after stimulation, relative to the baseline fluorescence, was analyzed and used directly as a measure for the increase of intracellular Ca^2+ level induced by PAR agonists.
(§2) Unless specifically mentioned, three replicates were carried out for each measurement or each compound. The standard deviation was derived from these measurements (n = 3). […] All dose-dependent responses were analyzed using non-linear regression method with the Prism software (Graph Pad).

[2] = system: endogenous PAR1 and PAR2 in A431 cells; assay: MRCAT resonant waveguide grating biosensor DMR assay in quiescent A431 cells; format: cell-based, human; settings: for EC50: A431 cells
Method: as §1
Corning® Epic™ angular interrogation system with transverse magnetic or p-polarized TM0 mode was used for all studies. The detailed instrumental setup and assay protocols had been previously described. Briefly, all compound solutions were prepared using 1 × HBSS containing minimal amount of dimethyl sulfoxide, while the starved cells were washed and maintained with 100 μl the serum-free DMEM. The cells were then treated with 50 μl 1 × HBSS buffered solution in the absence and presence of a compound, followed by stimulation with ligand solutions. The cellular responses were monitored in real time throughout the assays.
as §2

[3] = system: A431 cells; set-up: method as in PMID 16766609; settings: doses greater than ~1000 nM; cited from earlier work

EC50 ([1]; A431 cells, read-out: EC50 (n = 3) Ca^2+ flux assay): 45.7 ± 5.8 nM
EC50 ([2]; amplitude of N-DMR event, read-out: EC50 (n = 3) N-DMR): 102 ± 21.9 nM
EC50 ([2]; amplitude of P-DMR event, read-out: EC50 (n = 3) P-DMR): 98 ± 27.8 nM
B1: Trypsin: serine protease, PAR2 agonist, purchased from Sigma (protein, UniProt P00760 24-246, looked up)
Serine protease 1: IVGGYTCGANTVPYQVSLNSGYHFCGGSLINSQWVVSAAHCYKSGIQVRLGEDNINVVEGNEQFISASKSIVHPSYNSNTLNNDIMLIKLKSAASLNSRVASISLPTSCASAGTQCLISGWGNTKSSGTSYPDVLKCLKAPILSDSSCKSAYPGQITSNMFCAGYLEGGKDSCQGDSGGPVVCSGKLQGIVSWGSGCAQKNKPGVYTKVCNYVSWIKQTIASN
maximal [Ca^2+]i elevation ([1]; A431 cells, SFLLR-amide at 80 μM): 100 ± 6%
responsiveness (Ca^2+ mobilization) after pre-stimulation with thrombin ([1]; thrombin 40 unit/ml first, separated by 6 min): only partially
Ca^2+ mobilization response after pre-stimulation with trypsin ([1]; trypsin 200 nM first, repeated stimulation separated by 6 min): completely blocked
desensitization of trypsin-treated cells (DMR signal) ([2]; trypsin 200 nM first, repeated stimulation separated by ~1 hr): completely desensitized
cell detachment [3]: significant cell detachment

Source: PMC1925066, “Optical biosensor differentiates signaling of endogenous PAR1 and PAR2 in A431 cells” (BMC Cell Biology, 2007)
